Data reported in patent US20020037582A1 (published 2002).

B1: original 2.2412 cDNA clone in pACT-2 (nucleotides 694-2664 of FIG. 1, polypeptide of 657 amino acids) (other, not shown: large carriers)
chain: ERLAYEFKGHSLLQAAREADVTRIKKHLSLEMVNFKHPQTHETALHCAAASPYPKRKQICELLLRKGANINEKTKEFLTPLHVASEKAHNDVVEVVVKHEAKVNALDNLGQTSLHRAAYCGHLQTCRLLLSYGCDPNIISLQGFTALQMGNENVQQLLQEGISLGNSEADRQLLEAAKAGDVETVKKLCTVQSVNCRDIEGRQSTPLHFAAGYNRVSVVEYLLQHGADVHAKDKGGLVPLHNACSYGHYEVAELLVKHGAVVNVADLWKFTPLHEAAAKGKYEICKLLLQHGADPTKKNRDGNTPLDLVKDGDTDIQDLLRGDAALLDAAKKGCLARVKKLSSPDNVNCRDTQGRHSTPLHLAAGYNNLEVAEYLLQHGADVNAQDKGGLIPLHNAASYGHVDVAALLIKYNASLNATDKWAFTPLHEAAQKGRTQLCALLLAHGADPTLKNQEGQTPLDLVSADDVSALLTAAMPPSALPSCYKPQVLNGVRSPGATADALSSGPSSPSSLSAASSLDNLSGSFSELSSVVSSSGTEGASSLEKKEVPGVDFSITQFVRNLGLEHLMDIFEREQITLDVLVEMGHKELKEIGINAYGHRHKLIKGVERLISGQQGLNPYLTLNTSGSGTILIDLSPDDKEFQSVEEEMQSTVREHR
B2: L-arginine:glycine amidinotransferase cDNA clone in pACT2 (protein)
chain: ASSRNSCAADDKATEPLPKDCPVSSYNEWDPLEEVIVGRAENACVPPFTIEVKANTYEKYWPFYQKQGGHYFPKDHLKKAVAEIEEMCNILKTEGVTVRRPDPIDWSLKYKTPDFESTGLYSAMPRDILIVVGNEIIEAPMAWRSRFFEYRAYRSIIKDYFHRGAKWTTAPKPTMADELYNQDYPIHSVEDRHKLAAQGKFVTTEFEPCFDAADFIRAGRDIFAQRSQVTNYLGIEWMRRHLAPDYRVHIISFKDPNPMHIDATFNIIGPGIVLSNPDRPCHQIDLFKKAGWTIITPPTPIIPDDHPLWMSSKWLSMNVLMLDEKRVMVDANEVPIQKMFEKLGITTIKVNIRNANSLGGGFHCWTCDVRRRGTLQSYLD
B3: Nedd4 partial cDNA clone in pACT2 (CaLB domain together with the first 22 amino acids of the first WW domain) (other, human, UniProt P46934-4 1-212, looked up, not shown: large carriers)
chain: MATCAVEVFGLLEDEENSRIVRVRVIAGIGLAKKDILGASDPYVRVTLYDPMNGVLTSVQTKTIKKSLNPKWNEEILFRVHPQQHRLLFEVFDENRLTRDDFLGQVDVPLYPLPTENPRLERPYTFKDFVLHPRSHKSRVKGYLRLKMTYLPKTSGSEDDNAEQAEELEPGWVVLDQPDAACHLQQQQEPSPLPPGWEERQDILGRTYYVNH
B4: Gal4 DNA-BD fusion of the Grb14 central region (amino acids 110-437) in pAS2.1 (other, UniProt P04386 1-147, looked up)
chain: MKLLSSIEQACDICRLKKLKCSKEKPKCAKCLKNNWECRYSPKTKRSPLTRAHLTEVESRLERLEQLFLLIFPREDLDMILKMDSLQDIKALLTGLFVQDNVNKDAVTDRLASVETDMPLTLRQHRISATSSSEESSNKGQRQLTVSIKVYSEDETSRALDVPSDITARDVCQLLILKNHYIDDHSWTLFEHLPHIGVERTIEDHELVIEVLSNWGIEEENKLYFRKNYAKYEFFKNPMYFFPEHMVSFATETNGEISPTQILQMFLSSSTYPEIHGFLHAKEQGKKSWKKIYFFLRRSGLYFSTKGTSKEPRHLQFFSEFGNSDIYVSLAGKKKHGAPTNYGFCFKPNKAGGPRDLKMLCAEEEQSRTCWVTAIRLLKYGMQLYQNYMHPYQGRSGCSSQSISPMRSISENSLVAMDFSGQKSRVIENPTEALSVAVEEGLAWRKKGCLRLGTHGSPTASSQSSATNMAIHRSQ
B5: Htk partial cDNA clone in pACT2 (intracellular region and part of the extracellular domain) (receptor, human, UniProt P54760 436-987, looked up, not shown: large carriers)
chain: AVSDIRVTRSSPSSLSLAWAVPRAPSGAVLDYEVKYHEKGAEGPSSVRFLKTSENRAELRGLKRGASYLVQVRARSEAGYGPFGQEHHSQTQLDESEGWREQLALIAGTAVVGVVLVLVVIVVAVLCLRKQSNGREAEYSDKHGQYLIGHGTKVYIDPFTYEDPNEAVREFAKEIDVSYVKIEEVIGAGEFGEVCRGRLKAPGKKESCVAIKTLKGGYTERQRREFLSEASIMGQFEHPNIIRLEGVVTNSMPVMILTEFMENGALDSFLRLNDGQFTVIQLVGMLRGIASGMRYLAEMSYVHRDLAARNILVNSNLVCKVSDFGLSRFLEENSSDPTYTSSLGGKIPIRWTAPEAIAFRKFTSASDAWSYGIVMWEVMSFGERPYWDMSNQDVINAIEQDYRLPPPPDCPTSLHQLMLDCWQKDRNARPRFPQVVSALDKMIRNPASLKIVARENGGASHPLLDQRQPHYSAFGSVGEWLRAIKMGRYEESFAAAGFGSFELVSQISAEDLLRIGVTLAGHQKKILASVQHMKSQAKPGTPGGTGGPAPQY
B6: Gal4 DNA-BD fusion of the Grb14 N-terminus (amino acids 1-110) in pAS2.1 (other, UniProt P04386 1-147, looked up)
chain: MKLLSSIEQACDICRLKKLKCSKEKPKCAKCLKNNWECRYSPKTKRSPLTRAHLTEVESRLERLEQLFLLIFPREDLDMILKMDSLQDIKALLTGLFVQDNVNKDAVTDRLASVETDMPLTLRQHRISATSSSEESSNKGQRQLTVSMTTSLQDGQSAASRAAARDSPLAAQVCGAAQGRGDAHDLAPAPWLHARALLPLPDGTRGCAADRRKKKDLDVPEMPSIPNPFPELCCSPFTSVLSADLFPKANSRKKQVI

Experiments:
[1] = biological target: Gal4 DNA-BD-Grb14 fusion (full length Grb14, GRB14/pAS2.1) (S. cerevisiae) (UniProt P04386); test: cell-based or functional assay
[2] = biological target: Gal4 DNA-BD-Grb14 fusion (full length Grb14, GRB14/pAS2.1) (S. cerevisiae, UniProt P04386 1-147; Q14449 1-540); test: cell-based or functional assay
[3] = biological target: T1, Gal4 DNA-BD-Grb14 fusion (full length Grb14, GRB14/pAS2.1)
T1 chain: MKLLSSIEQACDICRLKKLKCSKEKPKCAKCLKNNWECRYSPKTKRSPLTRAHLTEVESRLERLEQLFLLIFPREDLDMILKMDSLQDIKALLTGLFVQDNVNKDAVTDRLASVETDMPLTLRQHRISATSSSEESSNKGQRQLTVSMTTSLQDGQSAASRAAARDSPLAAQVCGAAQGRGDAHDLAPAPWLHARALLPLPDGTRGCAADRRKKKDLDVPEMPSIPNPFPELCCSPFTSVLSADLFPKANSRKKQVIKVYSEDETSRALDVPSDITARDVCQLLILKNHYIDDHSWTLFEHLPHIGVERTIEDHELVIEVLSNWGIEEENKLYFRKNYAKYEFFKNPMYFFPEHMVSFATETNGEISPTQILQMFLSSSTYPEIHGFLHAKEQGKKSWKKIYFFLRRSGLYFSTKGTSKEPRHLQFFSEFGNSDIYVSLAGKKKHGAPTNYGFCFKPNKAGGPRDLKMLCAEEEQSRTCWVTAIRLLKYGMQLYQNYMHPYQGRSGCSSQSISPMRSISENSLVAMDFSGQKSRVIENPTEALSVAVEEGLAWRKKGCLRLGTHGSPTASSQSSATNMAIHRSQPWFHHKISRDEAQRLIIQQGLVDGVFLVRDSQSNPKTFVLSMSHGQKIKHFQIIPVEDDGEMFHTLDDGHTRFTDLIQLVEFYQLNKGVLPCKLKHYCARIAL

[4] = biological target: B1; test: yeast two hybrid, liquid- or filter-based beta-galactosidase assays
Description: (§1) These fragments spanned the following regions: N-terminus (“N”. amino acids 1-110), the central region (“C”) encompassing the mig10 homology and the “between PH and SH2” (BPS) domain (amino acids 110-437) and the N-terminal and central regions (“N+C”, amino acids 1-437). These plasmids were individually transformed into the yeast strain Y190 (MATα, ura3-52, his3-200, ade2-101, lys2-801, trp1-901, leu2-3, 112, gal4Δ, gal80Δ, cyh^r2, LYS2::GAL1UAS-HIS3TATA-HIS3, URA3::GAL1UAS-GAL1TATA-lacZ) and expression of the appropriately sized Gal4 DNA-BD fusion proteins confirmed by Western blotting.

[5] = biological target: B1; test: yeast two hybrid in strain Y190, liquid- or filter-based beta-galactosidase assays
Description: as §1

## Proteosome cDNA clone in pACT2 (from UniProt P04386 768-881)
[1]
  Mean RLU (Liquid assay), beta-galactosidase activity: 388 RLU

## Somatostatin receptor cDNA clone in pACT2
[1]
  Mean RLU (Liquid assay), beta-galactosidase activity: 1450 RLU

## B1
[2]
  Mean RLU (Liquid assay), beta-galactosidase activity: 5.18e+06 RLU

## B2
[3]
  Colour intensity (Filter assay), beta-galactosidase: +/-
  Mean RLU (Liquid assay), beta-galactosidase activity: 861 RLU

## B3
[2]
  Mean RLU (Liquid assay), beta-galactosidase activity: 2.86e+06 RLU

## B4
[4]
  binding result: no binding

## B5
[2]
  Mean RLU (Liquid assay), beta-galactosidase activity: 186000 RLU

## B6
[5]
  binding result: binds
